In patent publication US10400230B2, “Protease variants and polynucleotides encoding same” (NOVOZYMES A/S, priority 2014, dated 2019):

B1: K146N, S173P, S175P, F180Y: TY145 protease (SEQ ID NO 3) variant with these substitutions (protein, listed as Bacillus sp.)
chain: AVPSTQTPWGIKSIYNDQSITKTTGGSGIKVAVLDTGVYTSHLDLAGSAEQCKDFTQSNPLVDGSCTDRQGHGTHVAGTVLAHGGSNGQGVYGVAPQAKLWAYKVLGDNGSGYSDDIAAAIRHVADEASRTGSKVVINMSLGSSANDSLIASAVDYAYGKGVLIVAAAGNSGPGPNTIGYPGGLVNAVAVAALENVQQNGTYRVADFSSRGNPATAGDYIIQERDIEVSAPGASVESTWYTGGYNTISGTSMATPHVAGLAAKIWSANTSLSHSQLRTELQNRAKVYDIKGGIGAGTGDDYASGFGYPRVK
B2: K146W, S173P, S175P, F180Y: TY145 protease (SEQ ID NO 3) variant with these substitutions (protein, listed as Bacillus sp.)
chain: AVPSTQTPWGIKSIYNDQSITKTTGGSGIKVAVLDTGVYTSHLDLAGSAEQCKDFTQSNPLVDGSCTDRQGHGTHVAGTVLAHGGSNGQGVYGVAPQAKLWAYKVLGDNGSGYSDDIAAAIRHVADEASRTGSKVVINMSLGSSAWDSLIASAVDYAYGKGVLIVAAAGNSGPGPNTIGYPGGLVNAVAVAALENVQQNGTYRVADFSSRGNPATAGDYIIQERDIEVSAPGASVESTWYTGGYNTISGTSMATPHVAGLAAKIWSANTSLSHSQLRTELQNRAKVYDIKGGIGAGTGDDYASGFGYPRVK
B3: S173P, S175P, F180Y, R224G: TY145 protease (SEQ ID NO 3) variant with these substitutions (protein, listed as Bacillus sp.)
chain: AVPSTQTPWGIKSIYNDQSITKTTGGSGIKVAVLDTGVYTSHLDLAGSAEQCKDFTQSNPLVDGSCTDRQGHGTHVAGTVLAHGGSNGQGVYGVAPQAKLWAYKVLGDNGSGYSDDIAAAIRHVADEASRTGSKVVINMSLGSSAKDSLIASAVDYAYGKGVLIVAAAGNSGPGPNTIGYPGGLVNAVAVAALENVQQNGTYRVADFSSRGNPATAGDYIIQEGDIEVSAPGASVESTWYTGGYNTISGTSMATPHVAGLAAKIWSANTSLSHSQLRTELQNRAKVYDIKGGIGAGTGDDYASGFGYPRVK
B4: S27K, S171N, S173P, G174R, S175P, F180Y, Q198E, N199K, R224G, T297P: TY145 protease (SEQ ID NO 3) variant with these substitutions (protein, listed as Bacillus sp.)
chain: AVPSTQTPWGIKSIYNDQSITKTTGGKGIKVAVLDTGVYTSHLDLAGSAEQCKDFTQSNPLVDGSCTDRQGHGTHVAGTVLAHGGSNGQGVYGVAPQAKLWAYKVLGDNGSGYSDDIAAAIRHVADEASRTGSKVVINMSLGSSAKDSLIASAVDYAYGKGVLIVAAAGNNGPRPNTIGYPGGLVNAVAVAALENVQEKGTYRVADFSSRGNPATAGDYIIQEGDIEVSAPGASVESTWYTGGYNTISGTSMATPHVAGLAAKIWSANTSLSHSQLRTELQNRAKVYDIKGGIGAGPGDDYASGFGYPRVK
B5: S173P, S175P, F180Y, R224S: TY145 protease (SEQ ID NO 3) variant with these substitutions (protein, listed as Bacillus sp.)
chain: AVPSTQTPWGIKSIYNDQSITKTTGGSGIKVAVLDTGVYTSHLDLAGSAEQCKDFTQSNPLVDGSCTDRQGHGTHVAGTVLAHGGSNGQGVYGVAPQAKLWAYKVLGDNGSGYSDDIAAAIRHVADEASRTGSKVVINMSLGSSAKDSLIASAVDYAYGKGVLIVAAAGNSGPGPNTIGYPGGLVNAVAVAALENVQQNGTYRVADFSSRGNPATAGDYIIQESDIEVSAPGASVESTWYTGGYNTISGTSMATPHVAGLAAKIWSANTSLSHSQLRTELQNRAKVYDIKGGIGAGTGDDYASGFGYPRVK
B6: S27K, I121V, S171N, S173P, G174R, S175P, F180Y, Q198E, R224S, T297P: TY145 protease (SEQ ID NO 3) variant with these substitutions (protein, listed as Bacillus sp.)
chain: AVPSTQTPWGIKSIYNDQSITKTTGGKGIKVAVLDTGVYTSHLDLAGSAEQCKDFTQSNPLVDGSCTDRQGHGTHVAGTVLAHGGSNGQGVYGVAPQAKLWAYKVLGDNGSGYSDDIAAAVRHVADEASRTGSKVVINMSLGSSAKDSLIASAVDYAYGKGVLIVAAAGNNGPRPNTIGYPGGLVNAVAVAALENVQENGTYRVADFSSRGNPATAGDYIIQESDIEVSAPGASVESTWYTGGYNTISGTSMATPHVAGLAAKIWSANTSLSHSQLRTELQNRAKVYDIKGGIGAGPGDDYASGFGYPRVK
B7: S27K, V162T, S173P, G174K, S175P, F180Y, L184F, Q197K, Q198E, T297P: TY145 protease (SEQ ID NO 3) variant with these substitutions (protein, listed as Bacillus sp.)
chain: AVPSTQTPWGIKSIYNDQSITKTTGGKGIKVAVLDTGVYTSHLDLAGSAEQCKDFTQSNPLVDGSCTDRQGHGTHVAGTVLAHGGSNGQGVYGVAPQAKLWAYKVLGDNGSGYSDDIAAAIRHVADEASRTGSKVVINMSLGSSAKDSLIASAVDYAYGKGTLIVAAAGNSGPKPNTIGYPGGFVNAVAVAALENVKENGTYRVADFSSRGNPATAGDYIIQERDIEVSAPGASVESTWYTGGYNTISGTSMATPHVAGLAAKIWSANTSLSHSQLRTELQNRAKVYDIKGGIGAGPGDDYASGFGYPRVK
B8: S27K, S171D, S173P, G174R, S175P, G182A, L184F, Q198E, N199K, R224G, T297P: TY145 protease (SEQ ID NO 3) variant with these substitutions (protein, listed as Bacillus sp.)
chain: AVPSTQTPWGIKSIYNDQSITKTTGGKGIKVAVLDTGVYTSHLDLAGSAEQCKDFTQSNPLVDGSCTDRQGHGTHVAGTVLAHGGSNGQGVYGVAPQAKLWAYKVLGDNGSGYSDDIAAAIRHVADEASRTGSKVVINMSLGSSAKDSLIASAVDYAYGKGVLIVAAAGNDGPRPNTIGFPAGFVNAVAVAALENVQEKGTYRVADFSSRGNPATAGDYIIQEGDIEVSAPGASVESTWYTGGYNTISGTSMATPHVAGLAAKIWSANTSLSHSQLRTELQNRAKVYDIKGGIGAGPGDDYASGFGYPRVK
B9: S27K, S171N, S173P, G174R, S175P, F180Y, G182A, L184F, Q198E, N199K, R224G, T297P: TY145 protease (SEQ ID NO 3) variant with these substitutions (protein, listed as Bacillus sp.)
chain: AVPSTQTPWGIKSIYNDQSITKTTGGKGIKVAVLDTGVYTSHLDLAGSAEQCKDFTQSNPLVDGSCTDRQGHGTHVAGTVLAHGGSNGQGVYGVAPQAKLWAYKVLGDNGSGYSDDIAAAIRHVADEASRTGSKVVINMSLGSSAKDSLIASAVDYAYGKGVLIVAAAGNNGPRPNTIGYPAGFVNAVAVAALENVQEKGTYRVADFSSRGNPATAGDYIIQEGDIEVSAPGASVESTWYTGGYNTISGTSMATPHVAGLAAKIWSANTSLSHSQLRTELQNRAKVYDIKGGIGAGPGDDYASGFGYPRVK

Assays:
[1] = Determination of binding constants of inhibitor in Tris buffer at pH 8; type: biochemical; conditions: Ki of variant with the mutation relative to variant without the mutation
Procedure: (§1) Purified protease variants are pre-diluted to approximately 0.2 mg/ml in dilution buffer. 40 μl diluted protease is then mixed with 40 μl inhibitor solution (Z-Gly-Ala-NHCH(CH2C6H4pOH)C(OH)(SO3Na)—H, wherein Z is benzyloxycarbonyl) or 40 μl 4-FPBA solution in the well of a 96 well microtiter plate (Nunc F 96-MTP). […] After 10 min mixing of protease and inhibitor at room temperature, 30 μl of the mixture is transferred to a microtiter plate (Nunc U96 PP 0.5 ml) with 270 μl Model B detergent in the wells resulting in inhibitor concentrations of 0-30 μM and 4-FPBA concentrations of 0-6000 μM. Protease, inhibitor and detergent is mixed for 1 hour using magnetic bars for 1 hour at room temperature to reach equilibrium. Then 20 μl is transferred to a microtiter plate (Nunc F 96-MTP). 100 μl substrate solution is added and after 5 sec mixing absorbance at 405 nm is measured every 20 sec for 5 min on a SpectraMax Plus reader. Slope from linear regression of initial increase in absorbance at 405 nm is used for calculation of apparent binding constants.
(§2) It is assumed that protease and inhibitor react according to the equation: E+I ? EI
(§3) Where E is the protease, I is the inhibitor and EI is the protease-inhibitor complex. […] The concentration of enzyme-inhibitor in the detergent solution is then given by:
(§4) where Etot is the total protease concentration ([Etot]=[E]+[EI]), Itot is the total inhibitor concentration ([Itot]=[I]+[EI]), and Ki is the equilibrium binding constant for the reaction. The measured slopes V are given by:
(§5) where V0 is the slope without inhibitor added. To calculate apparent binding constant Ki least square fitting of measured slopes at various inhibitor concentrations to this equation is performed with Ki and V0 as variables.
(§6) Having the Ki for each variant, it is possible to calculate the effect of a single mutation, if data are available for at least two variants that differ only by that mutation. In this case, the relative Ki for the mutation is calculated:
(§7) [formula] A lower Ki is desirable, as a satisfactory inhibition can be obtained at a lower inhibitor concentration, so beneficial mutations have a relative Ki<1.0 The following table show such relative Kimutation. Each row show: • a mutation (column 1: “Mutation”) • a protease variant (relative to SEQ ID NO: 2) that comprise the mutation from column 1 (column 2: “Variant with the mutation”) • another protease variant (relative to SEQ ID NO: 2), that differs from the one in column 2 only by not having the mutation in column 1 (column 3: “Variant without the mutation”) • Relative Kimutation for the mutation in column 1, in the context of the variant in column 3, measured in Model B detergent (column 4: “inhibitor binding in Model B”) • Relative Kimutation for the mutation in column 1, in the context of the variant in column 3, measured in Tris buffer at pH 8 (column 5: “inhibitor binding in Tris buffer pH 8”)

[2] = Determination of binding constants of inhibitor (NNIC) in Model B detergent, Suc-AAPF-pNA read-out; type: biochemical; conditions: Ki of variant with the mutation relative to variant without the mutation; for Inhibitor-binding relative Kimutation, inhibitor binding in Model B: <1.0 beneficial
Procedure: as §1, §2, §3, §4, §5
The Ki for the parent protease and for each variant was calculated as described above
as §6, §7
Ki were calculated as shown in Example 3. The Improvement Factor (IF) or Relative

Row | Molecule | Inhibitor-binding relative Kimutation, inhibitor binding in Tris buffer pH 8 [1] | Inhibitor-binding relative Kimutation, inhibitor binding in Model B [2] | Inhibitor-binding relative Kimutation, inhibitor binding in Model B (Table 4b) [2]
1 | B1 | 0.91 | 0.93 | –
2 | B2 | 0.16 | 0.23 | –
3 | B3 | – | 0.47 | –
4 | B4 | – | 0.74 | –
5 | B5 | – | 0.50 | –
6 | B6 | – | 0.56 | –
7 | B7 | – | – | 0.17
8 | B8 | – | – | 0.49
9 | B9 | – | – | 0.69
